Measured values published in US11219221B2 (FarmHannong Co., Ltd., priority 2017, dated 2022).

B1: L326T: CyPPO17 variant (protein)
chain: MEVDVAIVGGGLSGLSVAWRLQQSAPQYSGVLLEASDRLGGNITTQGAEGFVWELGPNSFAPTPALLQLIAEVGLHSELIRGDRHLPRYIYWRGELYPLEPTRPLALATSNLLSPWGKVRAALGALGFVPPYLGSGDESVNSFFRRHLGQEVAERLVAPFVSGVYAGDPQQLSAAAAFRRIAQLEKLGGGLIAGALRLRRQQPPKPRPPAEVQMRPGELGSFKEGLAALPRAIAQQLKAPVHLQTPVEAITPEPNGGYLLRSGEQTWQARSVVLATPAYQTAALVAPFQPAIARVLAAIPYPTVACVVLAYPAGLGRSVRPGFGVTIPRGQGIRTLGTIWSSCLFPQRTPAGWQVFTSFIGGATDPDLASLREEAIVQQVQQDLTRLLDLPAAKARLLGMKVWRRAIPQYLVGYPQQWQQVTHALSQTPGLFLCSNYAEGVALGDRVEHGNRTAAAVAAYLSGGQS
modifications: Synthetic (Protoporphyrinogen IX oxidase (CyPPO17) of Thermosynechococcus sp. NK55a)
notes: CyPPO17 variant
B2: F359I: CyPPO17 variant (protein)
chain: MEVDVAIVGGGLSGLSVAWRLQQSAPQYSGVLLEASDRLGGNITTQGAEGFVWELGPNSFAPTPALLQLIAEVGLHSELIRGDRHLPRYIYWRGELYPLEPTRPLALATSNLLSPWGKVRAALGALGFVPPYLGSGDESVNSFFRRHLGQEVAERLVAPFVSGVYAGDPQQLSAAAAFRRIAQLEKLGGGLIAGALRLRRQQPPKPRPPAEVQMRPGELGSFKEGLAALPRAIAQQLKAPVHLQTPVEAITPEPNGGYLLRSGEQTWQARSVVLATPAYQTAALVAPFQPAIARVLAAIPYPTVACVVLAYPAGLGRSVRPGFGVLIPRGQGIRTLGTIWSSCLFPQRTPAGWQVFTSIIGGATDPDLASLREEAIVQQVQQDLTRLLDLPAAKARLLGMKVWRRAIPQYLVGYPQQWQQVTHALSQTPGLFLCSNYAEGVALGDRVEHGNRTAAAVAAYLSGGQS
modifications: Synthetic (Protoporphyrinogen IX oxidase (CyPPO17) of Thermosynechococcus sp. NK55a)
notes: CyPPO17 variant
B3: F359M: CyPPO17 variant (protein)
chain: MEVDVAIVGGGLSGLSVAWRLQQSAPQYSGVLLEASDRLGGNITTQGAEGFVWELGPNSFAPTPALLQLIAEVGLHSELIRGDRHLPRYIYWRGELYPLEPTRPLALATSNLLSPWGKVRAALGALGFVPPYLGSGDESVNSFFRRHLGQEVAERLVAPFVSGVYAGDPQQLSAAAAFRRIAQLEKLGGGLIAGALRLRRQQPPKPRPPAEVQMRPGELGSFKEGLAALPRAIAQQLKAPVHLQTPVEAITPEPNGGYLLRSGEQTWQARSVVLATPAYQTAALVAPFQPAIARVLAAIPYPTVACVVLAYPAGLGRSVRPGFGVLIPRGQGIRTLGTIWSSCLFPQRTPAGWQVFTSMIGGATDPDLASLREEAIVQQVQQDLTRLLDLPAAKARLLGMKVWRRAIPQYLVGYPQQWQQVTHALSQTPGLFLCSNYAEGVALGDRVEHGNRTAAAVAAYLSGGQS
modifications: Synthetic (Protoporphyrinogen IX oxidase (CyPPO17) of Thermosynechococcus sp. NK55a)
notes: CyPPO17 variant
B4: I339T: CyPPO17 variant (protein)
chain: MEVDVAIVGGGLSGLSVAWRLQQSAPQYSGVLLEASDRLGGNITTQGAEGFVWELGPNSFAPTPALLQLIAEVGLHSELIRGDRHLPRYIYWRGELYPLEPTRPLALATSNLLSPWGKVRAALGALGFVPPYLGSGDESVNSFFRRHLGQEVAERLVAPFVSGVYAGDPQQLSAAAAFRRIAQLEKLGGGLIAGALRLRRQQPPKPRPPAEVQMRPGELGSFKEGLAALPRAIAQQLKAPVHLQTPVEAITPEPNGGYLLRSGEQTWQARSVVLATPAYQTAALVAPFQPAIARVLAAIPYPTVACVVLAYPAGLGRSVRPGFGVLIPRGQGIRTLGTTWSSCLFPQRTPAGWQVFTSFIGGATDPDLASLREEAIVQQVQQDLTRLLDLPAAKARLLGMKVWRRAIPQYLVGYPQQWQQVTHALSQTPGLFLCSNYAEGVALGDRVEHGNRTAAAVAAYLSGGQS
modifications: Synthetic (Protoporphyrinogen IX oxidase (CyPPO17) of Thermosynechococcus sp. NK55a)
notes: CyPPO17 variant

Tested on: CyPPO17
Experiment: PPO enzyme activity of MBP-fused CyPPO17 wild type and variants
Type: biochemical, Thermosynechococcus sp. NK55a
Settings: PPO enzyme activity relative to wild type; MBP-fused protein, 50 μM protoporphyrinogen IX, room temperature, 30 min
Protocol: Thus, PPO proteins of wild type and variants were expressed as fused to MBP and were used for experiments.
The following process for purification of PPO protein was performed in a 4° C. cold room. Amylose resin (NEB) was packed to 1.5×15 cm column (Bio-Rad, Econo Columns 1.5×15 cm, glass chromatography column, max. vol), and the obtained protein extracts were loaded to the column at a flow rate of 0.2 ml/min. The column was washed with 3 column volumes of buffer and the presence of protein in the washing solution was examined. When the protein was no longer detected, the washing procedure was terminated. Then, the MBP-PPO protein was eluted with approximately 2 column volumes of buffer containing 20 mM maltose. The protein concentration of each eluent was determined and the elution was stopped when the protein was no longer detected. Ten microliter of each fraction was investigated for protein quantification and SDS-PAGE analysis. The highly pure fractions of PPO protein variants were used for the enzyme assay.
Since protoporphyrinogen IX, a substrate of PPO protein, was not commercially available, it was chemically synthesized in the laboratory. Overall process was performed in dark under nitrogen stream. […] of protoporphyrin IX was dissolved in 20 ml of 20% (v/v) EtOH, and stirred under dark condition for 30 minutes. The obtained protoporphyrin IX solution was put into a 15 ml screw tube in an amount of 800 μl, and flushed with nitrogen gas for 5 minutes. To this, 1.5 g of sodium amalgam was added and vigorously shaken for 2 minutes. The lid was opened to exhaust hydrogen gas in the tube. Thereafter, the lid was closed and incubated for 3 minutes. The protoporphyrinogen IX solution was filtered using syringe and cellulose membrane filter. […] To determine the enzyme activity of PPO protein, a reaction mixture was prepared with the following composition (based on 10 ml): 50 mM Tris-Cl (pH 8.0); 50 mM NaCl; 0.04% (v/v) Tween 20; 40 mM glucose (0.072 g); 5 units glucose oxidase (16.6 mg); and 10 units catalase (1 μl).
Hundred and eighty microliters of a reaction mixture containing the purified PPO protein were placed in 96 well plates and 20 μl of […] were added. […] The reaction proceeded at room temperature for 30 min and the fluorescence of protoporphyrin IX was measured using Microplate reader (Sense, Hidex) (excitation: 405 nm; emission: 633 nm). […] To this, 2.7 N HCl was added, and the absorbance at 408 nm was measured. A standard curve was generated using standard protoporphyrin IX, and PPO activity was measured by calibration of protoporphyrin IX using the standard curve of protoporphyrin IX.
Activities of variants were presented relatively compared to that of wild type.

In order of rising “Activity (%)” value:
1. B4  48%
2. B3  90%
3. B2  92%
4. B1  96%
